# Results: US20140178384A1 (INSTITUT PASTEUR, published 2014)
# B1: peroxynitrite-treated NGF (mouse NGF nitrated by peroxynitrite) (ligand)
# chain: SSTHPVFHMGEFSVCDSVSVWVGDKTTATDIKGKEVTVLAEVNINNSVFRQYFFETKCRASNPVESGCRGIDSKHWNSYCTTTHTFVKALTTDEKQAAWRFIRIDTACVCVLSRKATR
# modifications: nitro groups on Tyr52 and Trp99 (the species identified by mass spectrometry); up to five nitro groups and methionine oxidation suggested
# Target: T1, p75 neurotrophin receptor on rat embryonic motor neurons (rat, UniProt P07174 30-425)
# T1 sequence (looked up): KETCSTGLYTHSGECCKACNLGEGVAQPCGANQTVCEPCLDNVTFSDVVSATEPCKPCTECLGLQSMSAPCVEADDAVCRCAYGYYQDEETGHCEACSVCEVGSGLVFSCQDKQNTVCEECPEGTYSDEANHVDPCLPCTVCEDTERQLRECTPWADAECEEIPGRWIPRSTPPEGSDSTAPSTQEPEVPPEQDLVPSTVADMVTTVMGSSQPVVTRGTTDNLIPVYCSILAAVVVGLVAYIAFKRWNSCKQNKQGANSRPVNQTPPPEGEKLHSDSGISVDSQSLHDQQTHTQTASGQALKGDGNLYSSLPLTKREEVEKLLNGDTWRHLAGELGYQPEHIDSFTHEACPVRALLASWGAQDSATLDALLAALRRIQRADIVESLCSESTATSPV
# Assay: cell-based or functional assay
binder,measurement,value
B1,fold increase of apoptotic activity against native NGF,10000 fold
